Biological target: Casp-8^tDED_F122G/L123G mutant (human) (UniProt Q14790)
Test: crystal structure; FA^FuL_H9G-C8^FGLG-CF^H7G complex; proteins individually expressed in E. coli, complex co-purified by Ni-NTA and SEC (80 mM NaCl, 20 mM Tris pH 8.0); hanging drop, 20 °C; MR-SAD; 3.1 Å; one 1:5:4 complex per asymmetric unit; FADD DD not visible

stoichiometry N: 5
Substance: Casp-8^tDED_F122G/L123G mutant (from UniProt Q14790 1-185) (domain or fragment)

Source: publication PMC11074299
